Experiment [1] addresses T1, hFLAG-EGF34+NRR-His6 (101V), the human Notch1 NRR immunogen (Notch1 V1307-Q1733) (human, UniProt P46531 1307-1733).
T1 construct: also called hNotch1 NRR; human NRR1
Briefly: SPR (BIAcore-3000), IgG captured by anti-human IgG, NRR1-ECD injected 3.9-500 nM, 25 C. The method, then: (§1) To further characterize the binding affinity and binding kinetics of the anti-Notch1 NRR Mabs, surface plasmon resonance (SRP) measurement with a BIAcore™-3000 was used (BIAcore, Inc., Piscataway, N.J.). Briefly, carboxymethylated dextran biosensor chips (CM5, BIAcore Inc.) were activated with N-ethyl-N′-(3-dimethylaminopropyl)-carbodiimide hydrochloride (EDC) and N-hydroxysuccinimide (NHS) according to the supplier's instructions. Rabbit anti human antibody (Pierce) was diluted with 100 mM sodium acetate, pH 4.8, into 20 μg/ml before injection at a flow rate of 5 μl/minute to achieve approximately 3000 response units (RU) of coupled antibody. Next, 1M ethanolamine was injected to block unreacted groups. Anti-NRR1 mab (formatted as a full-length IgG) was captured by rabbit anti-human IgG coated on the chips to achieve approximately 200 response units (RU). For kinetics measurements, two-fold serial dilutions of human NRR1-ECD or murine NRR1-ECD proteins (3.9 nM to 500 nM) were injected in PBT buffer (PBS with 0.05% Tween 20) at 25° C. with a flow rate of 30 μl/min. Association rates (kₒₙ) and dissociation rates (koff) were calculated using a simple one-to-one Langmuir binding model (BIAcore Evaluation Software version 3.2). The equilibrium dissociation constant (KD) was calculated as the ratio koff/kₒₙ.

Experiment [2] concerns the target T2, mFLAG-EGF34+NRR-His6, the mouse Notch1 NRR immunogen (Notch1 V1307-Q1723) (mouse, UniProt Q01705 1307-1723).
T2 construct: the rest carries an N-terminal FLAG tag and a C-terminal His tag; also called mNotch1 NRR; murine NRR1
The description is as above. The method, then: as §1

Experiment [3] addresses mEGF34+NRR-L1597H-FLAG-TEV-Fc (mouse) (UniProt Q01705). Briefly: ELISA, target coated on the plate at 1 ug/ml, IgG titrated in 3-fold steps, detected with peroxidase anti-human Fab; A630.
Experiment [4] deals with T1, hFLAG-EGF34+NRR-His6 (101V), the human …. The experiment is described as above. The method, then:
(§2) 1 μg/ml of proteins in PBS, pH 7.4, were coated on ELISA plates (Nunc Maxisorp) at 4° C. overnight. Plates were blocked with Casein blocker in PBS (phosphate buffered saline; Pierce) for one hour at room temperature. Serial 3-fold dilutions of anti Notch1 NRR IgGs or irrelevant IgG in PBST buffer (PBT buffer (PBS+0.05% (v/v) Tween 20) with 0.5% (w/v) BSA) were added to the plates and incubated for one hour at room temperature. The plates were then washed with PBST and bound antibodies were detected with peroxidase-conjugated goat anti human Fab specific IgG (Sigma). TMB substrate (3,3′,5,5′-etramethylbenzidine) was used and absorbance at 650 nm was read using a standard ELISA plate reader. Absorbance was plotted against concentrations of IgGs using KaleidaGraph (Synergy Software).

The target of experiment [5] is T2, mFLAG-EGF34+NRR-His6, the mouse Notch1 …. The experiment is described as above. The method, then:
as §2

In a further experiment the target is T3, hFLAG-NRR-His6 (102V) (human, UniProt P46531 1447-1733).
T3 construct: no EGF-like repeats; not shown: FLAG tag; thrombin cleavage site and HIS tag
T3 sequence (P46531 1447-1733): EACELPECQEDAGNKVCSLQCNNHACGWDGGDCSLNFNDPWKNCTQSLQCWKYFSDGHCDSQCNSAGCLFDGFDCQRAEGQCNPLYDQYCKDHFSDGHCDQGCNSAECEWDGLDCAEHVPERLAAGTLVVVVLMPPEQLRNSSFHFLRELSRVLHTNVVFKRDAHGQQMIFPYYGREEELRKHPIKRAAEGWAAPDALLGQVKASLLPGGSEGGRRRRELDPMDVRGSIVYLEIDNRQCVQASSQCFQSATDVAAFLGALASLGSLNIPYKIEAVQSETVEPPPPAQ
Described as above. The method, then:
as §2

In experiment [6] the target is T1, hFLAG-EGF34+NRR-His6 (101V), the human …. Briefly: competitive phage-binding ELISA: phage-displayed Fab, soluble NRR1 titrated against coated NRR1. The method, then: (§3) To identify the phage antibodies that bound to both human and murine Notch1 NRR, all unique clones were tested for binding to human and murine Notch1 by ELISA. The affinities of phage antibodies were ranked using single spot competition ELISA as described below in this Example. The phage antibody IC50 values were further determined using competitive phage-binding ELISA essentially described in Lee, C. V., et al. (2004) J Mol Biol 340, 1073-93. Briefly, NUNC 96 well Maxisorp immunoplates were coated overnight at 4° C. with 1 μg/ml human NRR1 or murine NRR1, and were blocked for 1 hour at room temperature with blocking buffer PBST (PBS and 1% BSA and 0.05% Tween 20). Phage was mixed with serial dilution of human or murine NRR1 at room temperature for 1 hour before the mixture was added to human and murine NRR1 coated plate. Bound phage were detected with anti-M13 HRP conjugates, developed with TMB substrate for approximately 5 minutes, quenched with 1M H₃PO₄, and read spectrophotometrically at 450 nm.

Experiment [7] has as its target T2, mFLAG-EGF34+NRR-His6, the mouse Notch1 …. The description is as above. The method, then: as §3

T2 sequence (Q01705 other isoform, or with tags, fused parts or gaps): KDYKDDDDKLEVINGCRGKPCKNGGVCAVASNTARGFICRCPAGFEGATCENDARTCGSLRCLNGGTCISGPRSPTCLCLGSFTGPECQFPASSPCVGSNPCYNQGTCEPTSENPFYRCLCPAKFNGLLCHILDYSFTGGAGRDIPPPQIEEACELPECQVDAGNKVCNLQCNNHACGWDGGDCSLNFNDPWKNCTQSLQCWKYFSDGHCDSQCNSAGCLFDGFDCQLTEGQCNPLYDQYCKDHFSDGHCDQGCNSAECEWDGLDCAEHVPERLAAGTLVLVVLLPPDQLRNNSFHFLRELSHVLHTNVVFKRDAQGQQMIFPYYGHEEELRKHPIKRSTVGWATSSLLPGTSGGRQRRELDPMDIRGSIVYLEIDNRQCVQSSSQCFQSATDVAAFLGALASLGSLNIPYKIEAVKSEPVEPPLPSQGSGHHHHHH
T1 sequence (P46531 other isoform, or with tags, fused parts or gaps limits assumed): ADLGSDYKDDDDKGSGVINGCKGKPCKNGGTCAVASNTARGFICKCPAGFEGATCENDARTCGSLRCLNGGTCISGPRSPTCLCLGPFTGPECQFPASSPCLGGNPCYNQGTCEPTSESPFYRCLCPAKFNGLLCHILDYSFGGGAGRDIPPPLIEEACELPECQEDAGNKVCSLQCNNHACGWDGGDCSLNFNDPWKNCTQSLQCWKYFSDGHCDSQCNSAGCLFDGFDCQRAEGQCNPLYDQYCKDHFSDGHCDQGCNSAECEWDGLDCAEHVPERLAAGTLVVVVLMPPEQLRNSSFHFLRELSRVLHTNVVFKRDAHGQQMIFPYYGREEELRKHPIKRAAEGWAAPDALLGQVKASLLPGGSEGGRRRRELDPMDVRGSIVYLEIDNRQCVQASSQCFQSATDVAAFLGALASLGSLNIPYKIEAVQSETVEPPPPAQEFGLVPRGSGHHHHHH
Chain of mEGF34+NRR-L1597H-FLAG-TEV-Fc (mouse) (Q01705 1307-1723, stated change not applied): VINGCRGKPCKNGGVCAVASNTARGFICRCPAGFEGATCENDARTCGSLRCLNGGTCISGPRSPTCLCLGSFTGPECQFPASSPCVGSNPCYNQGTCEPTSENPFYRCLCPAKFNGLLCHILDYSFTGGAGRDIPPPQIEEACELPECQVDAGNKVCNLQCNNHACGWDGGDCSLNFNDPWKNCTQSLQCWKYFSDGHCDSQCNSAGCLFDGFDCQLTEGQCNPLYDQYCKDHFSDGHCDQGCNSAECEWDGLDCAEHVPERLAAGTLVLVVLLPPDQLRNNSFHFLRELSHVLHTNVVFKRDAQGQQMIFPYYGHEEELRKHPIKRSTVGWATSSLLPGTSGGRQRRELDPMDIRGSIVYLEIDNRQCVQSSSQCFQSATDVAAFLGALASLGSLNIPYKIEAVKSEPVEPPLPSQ

B1: Antibody A-1 (antibody, V domains shown)
VH: EVQLVESGGGLVQPGGSLRLSCAASGFTFSSYWIHWVRQAPGKGLEWVARINPPNGSAHYADSVKGRFTISADTSKNTAYLQMNSLRAEDTAVYYCARGSGFRWVMDYWGQGTLVTVSS
VL: DIQMTQSPSSLSASVGDRVTITCRASQDVSTAVAWYQQKPDGTVKLLIYSASFLYSGVPSRFSGSGSGTDFTLTISSLQPEDFATYYCQQSYTTPATFGQGTKVEIKR
notes: also called Antibody A-1-hIgG1
Consider B1, for which the dissociation constant (Kd) was 3.43 nM in experiment [1] and 3.88 nM in experiment [2]. For the same molecule, the koff in experiment [1] is 0.00023 s⁻¹; in experiment [2], 0.00033 s⁻¹. In addition, the on-rate (kon) turned out to be 67000 M⁻¹ s⁻¹ in experiment [1] and 85000 M⁻¹ s⁻¹ in experiment [2]. The concentration giving a half-maximal response (EC50 (read off the curve)) is 0.06 µg/mL in experiment [3], about 0.2 µg/mL in experiment [4], about 0.07 µg/mL in experiment [5] and about 0.1 µg/mL in the experiment with hFLAG-NRR-His6 (102V).

B2: Antibody A-1 (phage-displayed Fab clone) (Fab, V domains shown)
VH: EVQLVESGGGLVQPGGSLRLSCAASGFTFSSYWIHWVRQAPGKGLEWVARINPPNGSAHYADSVKGRFTISADTSKNTAYLQMNSLRAEDTAVYYCARGSGFRWVMDYWGQGTLVTVSS
VL: DIQMTQSPSSLSASVGDRVTITCRASQDVSTAVAWYQQKPDGTVKLLIYSASFLYSGVPSRFSGSGSGTDFTLTISSLQPEDFATYYCQQSYTTPATFGQGTKVEIKR
With B2, the figures for the IC50 in experiment [6] and in experiment [7] were 0.8 nM and 0.6 nM, respectively.

B3: Antibody A-3 (antibody, V domains shown)
VH: EVQLVESGGGLVQPGGSLRLSCAASGFTFSSYWIHWVRQAPGKGLEWVARINPANGSTRYADSVKGRFTISADTSKNTAYLQMNSLRAEDTAVYYCARGSGFRWVMDYWGQGTLVTVSS
VL: DIQMTQSPSSLSASVGDRVTITCRASQDVSTAVAWYQQKPDGTVKLLIYSASFLYSGVPSRFSGSGSGTDFTLTISSLQPEDFATYYCQQSFSTPATFGQGTKVEIK
For B3, in experiment [1], the equilibrium dissociation constant (Kd) stood at 5.88 nM, the off-rate (koff) was determined as 0.0004 s⁻¹ and the kon was 68000 M⁻¹ s⁻¹. Moreover, in experiment [2], the dissociation constant Kd was found to be 13 nM, the koff came to 0.0012 s⁻¹ and the on-rate (kon) was 92000 M⁻¹ s⁻¹.

B4: Antibody A-3 (phage-displayed Fab clone) (Fab, V domains shown)
VH: EVQLVESGGGLVQPGGSLRLSCAASGFTFSSYWIHWVRQAPGKGLEWVARINPANGSTRYADSVKGRFTISADTSKNTAYLQMNSLRAEDTAVYYCARGSGFRWVMDYWGQGTLVTVSS
VL: DIQMTQSPSSLSASVGDRVTITCRASQDVSTAVAWYQQKPDGTVKLLIYSASFLYSGVPSRFSGSGSGTDFTLTISSLQPEDFATYYCQQSFSTPATFGQGTKVEIK
Regarding B4, the IC50 in experiment [6] came out at 0.5 nM; in experiment [7], 2.5 nM.

B5: Antibody A-2 (phage-displayed Fab clone) (Fab, V domains shown)
VH: EVQLVESGGGLVQPGGSLRLSCAASGFTFSSYWIHWVRQAPGKGLEWVARINPPNRSNQYADSVKGRFTISADTSKNTAYLQMNSLRAEDTAVYYCARGSGFRWVMDYWGQGTLVTVSS
VL: DIQMTQSPSSLSASVGDRVTITCRASQDVSTAVAWYQQKPDGTVKLLIYSASFLYSGVPSRFSGSGSGTDFTLTISSLQPEDFATYYCQQFYTTPSTFGQGTKVEIKR
For the molecule B5, the half-inhibitory concentration (IC50) in experiment [6] and in experiment [7] was 0.5 nM throughout.

B6: Antibody A-2 (antibody, V domains shown)
VH: EVQLVESGGGLVQPGGSLRLSCAASGFTFSSYWIHWVRQAPGKGLEWVARINPPNRSNQYADSVKGRFTISADTSKNTAYLQMNSLRAEDTAVYYCARGSGFRWVMDYWGQGTLVTVSS
VL: DIQMTQSPSSLSASVGDRVTITCRASQDVSTAVAWYQQKPDGTVKLLIYSASFLYSGVPSRFSGSGSGTDFTLTISSLQPEDFATYYCQQFYTTPSTFGQGTKVEIKR
notes: also called Antibody A-2-hIgG1
With B6, the dissociation constant Kd is 2.53 nM in experiment [1] and 3.09 nM in experiment [2]. The koff in experiment [1] stood at 0.00022 s⁻¹; in experiment [2] it was 0.00034 s⁻¹. Besides, the on-rate constant (kon) in experiment [1] amounted to 87000 M⁻¹ s⁻¹; in experiment [2] it was 110000 M⁻¹ s⁻¹. In addition, the EC50 (read off the curve) is 0.04 µg/mL in experiment [3], about 0.07 µg/mL in experiment [4], about 0.05 µg/mL in experiment [5] and about 0.06 µg/mL with hFLAG-NRR-His6 (102V).
